The RNAGym collection of RNA variant scans (doi:10.1073/pnas.2313332121)

B1: TPR t1 (parent)
chain: GACCAAUCUGCCCUCAGAGCUCGAGAACAUCUUCGGAUGCAGAGGAGGCAGGCUUCGGUGGCGCGAUAGCGCCAACGUCCUCAACCUCCAAUGCAUCCCACCACAUGAUGAUGCCUGAAGAGCCUUGGUUUUUUG

Variants of: B1
Experiment: polymerase ribozyme fitness, log enrichment relative to wild type (log ratio); higher = more active; in vitro selection for triplet polymerase activity
Procedure, shortened: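 A single round of triplicate in vitro selection, including frozen incubation at −7 °C, was applied to PCR-built, transcribed mutant libraries of each subunit of a heterodimeric triplet polymerase ribozyme. Illumina sequencing of input and output libraries retained genotypes with ≥10 input reads and ≥1 read per output. Fitness is the base-2 logarithm of genotype enrichment divided by wild-type enrichment, from inverse-variance-weighted replicate averages.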

Row | Variant | polymerase ribozyme fitness (log ratio)
1 | GACCAAUCUGCCCUCAGAGCUCGAGAACAUCUUCGGAUGCAGAGGAGUGAGGCUUCGGUGGCGCGAUAGCGCCAACGUCCUCAACCUCCAAUGCAUCCCACCACAUGAUGAUGCCUGAAGAGCCUUGGUUUUUUG [G48U C49G] | -0.587
2 | GACCAAUCUGCCCUCAGAGCUCGAGAACAUCUUCGGAUGCAGAGGAGUUAGGCUUCGGUGGCGCGAUAGCCCCAACGUCCUCAACAUCCAAUGCAUCCCACCACAUGAUGAUGCCUGAAGAGCCUUGGUUUUUUG [G48U C49U G71C C86A] | -2.67
3 | GACCAAUCUGCCCUCAGAGCUCGAGAACAUCUUCGGAUGCAGAGGAGUCAGGCUUCGGUGGUGCGAUAGCGCCAACGUCCUCACCCUCCAAUGCAUCCCACCACAUGAUGAUGCAUGAAGAGCCUUGGUUUUUUG [G48U C62U A84C C115A] | -1.79
4 | GACCAAUCUGCCCUCAGAGCUCGAGAACAUCUUCGGAUGCAGAGGAGUCAGGCUUCGGUGGCGCGAUAGCGCCAACGUCCUCAACCUACACUGCAUCCCACCACAUGAUGAUGCCUGAAGAGCCUUGGUUUUUUG [G48U C88A A91C] | -2.5
5 | GACCAAUCUGCCCUCAGAGCUCGAGAACAUCUUCGGAUGCAGAGGAGUCAGGCUUGGGUGGCGUGAUAGCGCCAACGUCCUCAACCUCCAAUGCAUCCCAACACAUGAUGAUGCCUGAAGAGCCUUGGUUUUUUG [G48U C56G C64U C101A] | -2.95
6 | GACCAAUCUGCCCUCAGAGCUCGAGAACAUCUUCGGAUGCAGAGGAGUCAGGCUUCGGUGGCGCGAUAGCGCCAACGUCCUCACCCUCCAAUGCAUCCCACCACAUGAUGAUGUCGGAAGAGCCUUGGUUUAUUG [G48U A84C C114U U116G U132A] | -7.04
7 | GACCAAUCUGCCCUCAGAGCUCGAGAACAUCUUCGGAUGCAGAGGAGUCAGGCUUCGGUGGCGCGAUAGCGCCAACGUCCUCAACCUCAAAUGCAUCCCACCACAUGAUGAUGCCUGAAGAGCCUUGGUUUUUUG [G48U C89A] | -1.52
8 | GACCAAUCUGCCCUCAGAGCUCGAGAACAUCUUCGGAUGCAGAGGAGUCAGGCUUCGGUGGCGCGAUAGCGCCAACGUCCUCAACCUCCAAUGCAUCCCACCACAUGAUGAUGCCUGAAGUGCCUUGGUUUUUUG [G48U A121U] | 0.519
9 | GACCAAUCUGCCCUCAGAGCUCGAGAACAUCUUCGGAUGCAGAGGAGUCAGGCUUGGGUGGCGCGAUAGCGCCAACGUCGUCAACCUCCAAUGCAUCCCACCACAUGAUGAUGCCUGAAGAGCCUUGGUUUUUUG [G48U C56G C80G] | -3.4
10 | GACCAAUCUGCCCUCAGAGCUCGAGAACAUCUUCGGAUGCAGAGGAGUCAGGCUUCGGUGGCGCGAUAGCGACAACGUCCUCAACCUCCAAUGCAUCCCACCACAUGAUGAUGCCUGAAGAGCCUUGGUUUUUUG [G48U C72A] | -0.467
11 | GACCAAUCUGCCCUCAGAGCUCGAGAACAUCUUCGGAUGCAGAGGAGUCAGGCUUCGGUGGCGCGAUAGCGUAAACGUCCUCAACCUCCAAUGCAUCCCACCACAUGAUGAUGCCUGAAGAGCCUUAGUUUUUUC [G48U C72U C73A G127A G135C] | -1.64
12 | GACCAAUCUGCCCUCAGAGCUCGAGAACAUCUUCGGAUGCAGAGGAGUCGGGCUUCGGUGGCGCGAUAGCGCCAACGUCCUCAACCUCCAAUGCAUCCCACCACAUGAUGAUGCCUGAAGAGCCUUGGUUUUUUG [G48U A50G] | -1.02
13 | GACCAAUCUGCCCUCAGAGCUCGAGAACAUCUUCGGAUGCAGAGGAGUUAGGCUUCGGUGGCGCGAUAGCGAAAACGUCCUCAACCUCCAAUGCAUCCCACCACAUGAUGAUGCCUGAAGAGCCUUGGUUCUUUG [G48U C49U C72A C73A U131C] | -2.61
14 | GACCAAUCUGCCCUCAGAGCUCGAGAACAUCUUCGGAUGCAGAGGAGUCGGGCUUCGCUGGCGCGAUAGCGCCAACGUCCUCAACCUCCAAUGCAUCCCACCACAUGAUGAUGCCUUAAGAACCUUGGUUUUUUG [G48U A50G G58C G117U G122A] | -4.46
15 | GACCAAUCUGCCCUCAGAGCUCGAGAACAUCUUCGGAUGCAGAGGAGUCAGGCUUCGGUGGCGCGAUAGCGCCAACGUACUCAACCUCCAAUGCAUCCCACCACAUGAUGAAGCCUGAAGAGCCUUGGUUUUUUG [G48U C79A U112A] | -2.84
16 | GACCAAUCUGCCCUCAGAGCUCGAGAACAUCUUCGGAUGCAGAGGAGUCAGGCUUCGGUGGCGCGAUAGCGCCAACGUCCUUAACCUCCAAUGCAUCCCACCACAUGAUGAUGCCUGAAGAGCCUUGGUUUUUUG [G48U C82U] | -1.32
17 | GACCAAUCUGCCCUCAGAGCUCGAGAACAUCUUCGGAUGCAGAGGAGUGAGGCUUCGGUGGCUCGAUAGCGCCAACGUCCUCAACCUCCAAUGCAUCCCACCACAUGAUGAUGCCUGAAGAGCCUUGGUUUUUUG [G48U C49G G63U] | -1.73
18 | GACCAAUCUGCCCUCAGAGCUCGAGAACAUCUUCGGAUGCAGAGGAGUCAGGCUUCGGUGGGGCGAUAGCGCCAACGUCCUCAACCUCCAUUGCAUCCCACCACAUGAUGAUGCCUGAAGAGUCAUGGUUUUUUG [G48U C62G A91U C123U U125A] | -5.93
19 | GACCAAUCUGCCCUCAGAGCUCGAGAACAUCUUCGGAUGCAGAGGAGUCAGGCUUCGGUGGCGUGAUAGCGCCAACGUCCUCAACCUCCAAUGCAUCCCACCACAUGAUGAUGCCUGAAAAGUCUUGGUUUUUUG [G48U C64U G120A C123U] | 0.28
20 | GACCAAUCUGCCCUCAGAGCUCGAGAACAUCUUCGGAUGCAGAGGAGUCAGGCUUCGGUGGAGCGAUAGCGCCAACGUCCUCAACCUCCAAUGCAUCCCACCACAUGAUGAUGCCUGAAGAGCCUUGGUUUUUUG [G48U C62A] | -1.81
21 | GACCAAUCUGCCCUCAGAGCUCGAGAACAUCUUCGGAUGCAGAGGAGUCAGGCUUCGGUGGGGCGAUAGCGCCAACGUCCUCAACCUCCAAUGCAUCCCACCACAUGAUGAUGCCUGAAGAGCCUUGGUUUUUUG [G48U C62G] | -3.39
